Here are results for two molecules from PMC3727926 (Molecular Biology of the Cell, 2013).

The chains are these.
B1: His-Arf3^Q71L, recombinant histidine-tagged constitutively active Arf3 (natural protein, S. cerevisiae, UniProt P40994 1-183, looked up)
chain: MGNSISKVLGKLFGSKEMKILMLGLDKAGKTTILYKLKLNKIKTSTPTVGFNVETVTYKNVKFNMWDVGGLQRLRPLWRHYFPATTALIFVIDSSARNRMEEAKEELYSIIGEKEMENVVLLVWANKQDLKDAMKPQEVSDFLELEKNLKNQPWCVIGSNALSGQGLVEGLSWISNNTNVPKK
B2: GST-Bud2N1, GST-tagged first 120 residues of Bud2p (domain or fragment, S. cerevisiae, UniProt P33314 1-120, looked up)
chain: MSSNNEPAQSRTSYFKLNEFLSNVKHYKNTFKGEIQWCNNLSLNDWKTHYLQITSTGALTHSIDELTADSTNIQPIIKHLQQCRIEIIKDKHSSFKDINANCNFIIQVNTSGKDNKVYLR

What all share (experiment): pull-down
In experiment [1] the target is T1, GST-Bud2-N, GST-tagged N-terminal 336 amino acids of Bud2p (S. cerevisiae, UniProt P33314 1-336).
T1 sequence (looked up): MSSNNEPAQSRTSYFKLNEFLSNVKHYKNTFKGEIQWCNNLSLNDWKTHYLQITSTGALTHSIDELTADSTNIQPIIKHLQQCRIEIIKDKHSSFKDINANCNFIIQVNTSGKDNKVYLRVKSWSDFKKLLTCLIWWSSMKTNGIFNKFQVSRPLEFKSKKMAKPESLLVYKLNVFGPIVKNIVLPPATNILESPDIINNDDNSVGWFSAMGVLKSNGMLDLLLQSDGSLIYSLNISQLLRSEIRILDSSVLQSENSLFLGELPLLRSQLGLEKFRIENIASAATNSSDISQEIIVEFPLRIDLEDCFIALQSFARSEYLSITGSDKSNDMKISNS

The target in experiment [2] is B1.
Experiment [3] has as its target T2, His-Arf3, purified, prebound with GTPγS or GDP (S. cerevisiae, UniProt P40994 1-183).
T2 sequence (looked up): B1 chain with L71Q

Positions count from the first letter of the chain named. Names may count otherwise.

In the case of B1, in experiment [1], the binding result is “binds”.

In the case of B2, the binding result in experiment [2] and in experiment [3] was “binds” in each case.
